We go through five sequences from a protein production outcome set (Wang et al. 2014).

The data set in a line: label from the status in PepcDB records.

For the sequence “MLRASLLCSSTSITFTPIQLFNPNSSHRFPRFELSRPVSALSRTKCHLSLLRARGKSSFLTRSTATDEAVETSSNSGLDLVEVGFLSGVHGLQGEICIKPNTDFPDLRFSKPGRRWLKQQLLGQDKIDEVELVEGRPHPAQKSWILKFRGLDDVDQVRQLVGATLLAEDDDRPELDEGEFYSRDLVGMRVLLKETGQLVGTVANIFDNGGNDLLHVLLDSSMEVCNGNAKTNQLVWIPFVDAIVPDVDLERKEMYITPPKGLLEVNMRADDRSKKERRQLEWKERKKQQKRLIAAKKKLCEMEQKHVFDGLRFGEKSQRNLLADHILNVNSTLLQKALQSIDTSSKRWNVTEEINALRARVSECNLSVSRECLSFDASKENMGDNFSFLQQGQNLFSEGKVSICLVLNDHENEEPEGENGVVSYLHALLDEEQRFIKEEDRACVPLVIVSPEHTIEALQKLFQDNDHFGFESEKIWILKEETLPVVCSSPEEPKKHKILMKSPWEILESPVGSGGVLSILASHGTTDSLSTLGINYLQVHSIETKPQPSQHYINPMLVGFVSARGAEIGIQVTEESELKNLEMTFSMKFLKRLKGKIEFEAVMKMNSHVQNVEKEWVESVPSEPNSFEFRSDIYRVLSECSSSAKICLMNITV”, the protein production entry is recorded as “failed”.

Turning to “MLRCSHSKGVNYINFSATGKLLVSVGVDPEHTITVWRWQEGTKVASRGGHLERIFVVEFRPDSDTQFVSVGVKHMKFWTLAGSALLYKKGVIGSMEAARMQTMLSVAFGANNLTFTGAINGDVYVWKEHFLIRLVAKAHTGPVFTMYTTLRDGLIVTGGKERPTKEGGAVKLWDQEMKRCRAFQLETGQLVECVRSVCRGKGKILVGTKDGEIIEVGEKSAASNILIDGHMEGEIWGLATHPSKDMFISASNDGTARIWDLADKKLLNKVNLGHAARCAAYSPDGEMVAIGMKNGEFIILLVNSLKVWGKKRDRKSAIQDIRISPDNRFLAVGSSEHTVDFYDLTQGTSLNRIGYCKDIPSFVIQMDFSADSKYIQVSTGAYKRQVHEVPLGKQVTEAMVIEKITWASWTSVLGDEVIGIWPRNADKADVNCACVTHDGLNIVTGDDFGLVKLFDFPCTEKFAKHKRYFGHSAHVTNIRFSYDDKYVVSTGGDDCSVFVWRCL”, the protein production entry is recorded as “failed”.

With “MLRIFQGRPAVTIAAVLVAASVAGCAGKAKKPTLVYEERPVELLYSTGADRLDRGNWNEAVDYFREVERQHPYSEWSRRSILMTGYAHYMGNQYAEAIGDADRFISLYPGNPSAQYAFYLKAICYFEQIVDVNRDQAATEQALAALRDVVQRYPNTEYATDARLKIDMVNDQLAGKEMAIGRWYLKNGQTLAAIGRFKAVIERHQTTSHTPEALFRLVEAYLTIGLNEEAKRNGAVLGYNFPGDRWYVDAYRLLNDNGLRPAVEPLKAGAKRNALERILSKDKEATLAPPGERKAKKGLLGPLGM”, the protein production result was “failed”.

“MLRLSAPGQLDDDLCLLGDVQVPVFLLRLGEASWALVEGGISRDAELVWADLCRWVADPSQVHYWLITHKHYDHCGLLPYLCPRLPNVQVLASERTCQAWKSESAVRVVERLNRQLLRAEQRLPEACAWDALPVRAVADGEWLELGPRHRLQVIEAHGHSDDHVVFYDVRRRRLFCGDALGEFDEAEGVWRPLVFDDMEAYLESLERLQRLPTLLQLIPGHGGLLRGRLAADGAESAYTECLRLCRRLLWRQSMGESLDELSEELHRAWGGQSVDFLPGELHLGSMRRMLEILSRQALPLD”: the protein production result is listed as “failed”.

With “MLRNKAFVVRLYPNAAQAERINRTLGCARFVYNHFLARRIESYRQDGKGMIYAATDKALTLLKREEGTAWLAEVDKFALQQSLRDLERAYQNFFRTAKKSGKKVGFPKFKKKRTGEAYRTQFTNNNIEIGEGKLKLPKLGWVKTRGQRDMQGKILNVTVRRIHEGHYEASVLCEVEIPYLPAAPKFAAGVDVGIKDFAIVTDGKGEFEHHANPKYYRSSLRRLRKAQKTLSRRKKGSARYGRAKTTLARIHKRVANKRQDFIHKLTTSLVREYEITCTEHLKPDNMRKNRRLALSVSDAGWGEFIRQLEYKATWYGRLVSKISPYFPSSQICHDCGFKNPAVKNLAVREWTCPNCGETHDRDENAALNIRREGLVAAGMSDTQNAHGDCIRPTSVGSGLRSENHATSVVLEHHHHHH”, the protein production result is reported as “not failed”.
